Source: patent publication US20170348397A1 (Janssen / Centocor, published 2017)

Legend:
Human Serum Albumin = target: T1, Human Serum Albumin (human, UniProt P02768 25-609); test: IMAC pull-down from normal serum, SDS-PAGE with Coomassie stain
T1 construct: also called HSA
Protocol: (§1) To evaluate the functionality of binders, selected FN3 domains were tested for their ability to complex with endogenous albumin in normal serum. To ensure that albumin binding was preserved when selected FN3 domains were attached at either the amino or carboxy terminus of another FN3 domain, bivalent FN3 genes were prepared to generate constructs ALB18, ALB 30, ALB 21, ALB33, ALB34 and ALB35 (Table 6).
(§2) C-terminally His6-tagged (SEQ ID NO: 72) bivalent FN3 domains (0.25-2.0 mg/mL in DPBS without calcium or magnesium) were mixed in a 1:1 volumetric ratio with normal serum and incubated for 1 hour at room temperature to allow binding to endogenous albumin in the serum. His6-tagged (SEQ ID NO: 72) FN3 domain-albumin complexes were recovered from serum via immobilized metal affinity chromatography (IMAC) using 200+ PhyTip columns containing a 5 μL resin bed (PureSpeed™ Protein Tip IMAC from Rainin Instrument LLC; Oakland, Calif.) pre-equilibrated with 50 mM Tris, pH 7.0 containing 500 mM NaCl and 10 mM imidazole. Unbound serum proteins were removed by exhaustively washing the resin with equilibration buffer. Bound protein was eluted with 25-100 μL of elution buffer (50 mM Tris, pH 7.0 containing 500 mM NaCl and 250 mM imidazole, pH 7.5). Eluates were analyzed by SDS-PAGE for the co-precipitation of albumin. SDS-PAGE gels were stained with colloidal Coomassie. […]

Cynomolgus Serum Albumin = target: T2, Cynomolgus Serum Albumin (cynomolgus monkey, UniProt A2V9Z4 25-608); test: as above
T2 construct: also called Macaca Fascicularis (cynomolgus monkey) serum albumin
T2 sequence (A2V9Z4 25-608 limits assumed): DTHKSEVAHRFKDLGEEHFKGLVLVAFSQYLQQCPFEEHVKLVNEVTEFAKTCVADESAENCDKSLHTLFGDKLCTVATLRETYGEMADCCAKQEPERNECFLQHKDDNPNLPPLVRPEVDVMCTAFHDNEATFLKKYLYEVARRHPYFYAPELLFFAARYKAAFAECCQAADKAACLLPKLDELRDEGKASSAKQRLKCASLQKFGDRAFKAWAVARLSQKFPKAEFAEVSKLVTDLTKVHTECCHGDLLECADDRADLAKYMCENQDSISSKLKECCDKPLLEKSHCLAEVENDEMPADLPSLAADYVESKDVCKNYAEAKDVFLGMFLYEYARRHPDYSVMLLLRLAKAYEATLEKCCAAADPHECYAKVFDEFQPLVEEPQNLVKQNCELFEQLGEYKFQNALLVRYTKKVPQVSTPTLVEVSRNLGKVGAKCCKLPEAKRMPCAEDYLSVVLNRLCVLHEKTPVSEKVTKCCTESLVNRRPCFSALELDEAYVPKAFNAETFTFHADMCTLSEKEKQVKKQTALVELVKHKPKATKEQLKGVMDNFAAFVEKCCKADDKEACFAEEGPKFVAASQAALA
Protocol: as §1, §2

T1 sequence (P02768 25-609 limits assumed): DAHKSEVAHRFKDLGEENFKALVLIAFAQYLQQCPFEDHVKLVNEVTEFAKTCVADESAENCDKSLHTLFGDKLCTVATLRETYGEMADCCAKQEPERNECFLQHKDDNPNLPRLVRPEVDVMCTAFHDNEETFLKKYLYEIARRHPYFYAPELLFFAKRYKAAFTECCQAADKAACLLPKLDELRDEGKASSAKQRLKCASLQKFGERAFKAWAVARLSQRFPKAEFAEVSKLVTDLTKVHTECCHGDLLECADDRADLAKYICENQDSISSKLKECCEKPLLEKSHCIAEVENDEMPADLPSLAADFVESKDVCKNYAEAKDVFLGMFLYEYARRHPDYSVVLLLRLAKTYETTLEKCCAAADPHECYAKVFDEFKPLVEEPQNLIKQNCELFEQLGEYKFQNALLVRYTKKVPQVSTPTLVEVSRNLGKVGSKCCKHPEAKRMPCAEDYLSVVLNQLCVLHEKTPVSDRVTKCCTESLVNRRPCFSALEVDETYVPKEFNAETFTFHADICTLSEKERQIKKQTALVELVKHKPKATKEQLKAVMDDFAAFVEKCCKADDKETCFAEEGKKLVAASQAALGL

B1: Tencon25 (designed binder)
chain: LPAPKNLVVSEVTEDSARLSWTAPDAAFDSFLIQYQESEKVGEAIVLTVPGSERSYDLTGLKPGTEYTVSIYGVKGGHRSNPLSAIFTT
notes: Negative control of the pull-down; also called Tc25; TC25
Human Serum Albumin
  binding result: no binding
Cynomolgus Serum Albumin
  binding result: no binding
